Measurements taken from paper PMC4338318.

How the values were obtained:
[1] = biological target: Seipin-Myc (wild type) (human) (UniProt Q96G97); assay: atomic force microscopy (AFM); complexes isolated by sequential anti-FLAG and anti-Myc immunoaffinity from triply transfected tsA 201 cells; tapping mode in air
FLAG-seipin-Myc (human) = FLAG-seipin-Myc (human) (UniProt Q96G97); assay: atomic force microscopy (AFM); complexes isolated by anti-Myc immunoaffinity from co-transfected tsA 201 cells and eluted; tapping mode in air; particle volumes and decorations

| Substance | stoichiometry N [1] | stoichiometry N (FLAG-seipin-Myc (human)) | percent of seipin particles doubly decorated by AGPAT2 plus lipin 1 [1] | percent of seipin particles doubly decorated (FLAG-seipin-Myc (human)) | percent of seipin particles triply decorated (FLAG-seipin-Myc (human)) |
| --- | --- | --- | --- | --- | --- |
| Seipin-Myc (wild type) (from UniProt Q96G97 1-398) (natural protein) | 12 |  |  |  |  |
| FLAG-seipin-Myc (from UniProt Q96G97 1-398) (natural protein) |  | 12 |  |  |  |
| FLAG-AGPAT2 (from UniProt O15120 24-278) (enzyme) |  |  | 10.1% | 12.8% | 1% |
| HA-lipin 1α (from UniProt Q14693 1-890) (enzyme) |  |  | 10.1% | 9% |  |
